From patent publication US20230357348A1 (AstraZeneca / MedImmune, published 2023)
Starred links: 1 amine or outer side, 2 acyl side, 3 side chain; linkers in the order of their positions; H or OH if unused. Non-standard residues stand in square brackets, D forms with d. Groups on a side chain read outwards from the residue. Primed or numbered codes have the meaning given here. No end group written: not given here. *: point of attachment. C20 diacid = O=C(O)CCCCCCCCCCCCCCCCCCC(=O)*; C18 diacid = O=C(O)CCCCCCCCCCCCCCCCC(=O)*; γGlu = O=C(O)[C@H](CCC(=O)[*:2])N[*:1]; αMeF = C[C@](N)(Cc1ccccc1)C(=O)O; (PEG)2 = polyethylene glycol 2; PEG4 = NCCOCCOCCOCCOCCC(=O)O; PEG4′ = polyethylene glycol; AEEA = NCCOCCOCC(=O)O; Aib = CC(C)(N)C(=O)O

Tests used:
human GLP-1 receptor = human GLP-1 receptor (human, UniProt P43220 24-463); assay: cell-based or functional assay
human glucagon receptor = human glucagon receptor (human, UniProt P47871 26-477); assay: cell-based or functional assay
Sequence of human glucagon receptor (P47871 26-477): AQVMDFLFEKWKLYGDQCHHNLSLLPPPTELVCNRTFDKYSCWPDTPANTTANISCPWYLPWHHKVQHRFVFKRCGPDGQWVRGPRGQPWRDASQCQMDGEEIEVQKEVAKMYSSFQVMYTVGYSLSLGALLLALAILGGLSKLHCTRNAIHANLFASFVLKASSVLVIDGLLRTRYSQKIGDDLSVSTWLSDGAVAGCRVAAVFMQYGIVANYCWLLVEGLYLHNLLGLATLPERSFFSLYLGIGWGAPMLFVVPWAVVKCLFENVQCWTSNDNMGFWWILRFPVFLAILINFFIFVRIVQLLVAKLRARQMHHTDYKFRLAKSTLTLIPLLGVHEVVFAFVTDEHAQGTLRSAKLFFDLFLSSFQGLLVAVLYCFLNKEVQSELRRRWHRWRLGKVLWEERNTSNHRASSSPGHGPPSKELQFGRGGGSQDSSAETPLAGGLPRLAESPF

Binder	hGLP-1R EC50 (pM), cAMP (human GLP-1 receptor)	hGluc-R EC50 (pM), cAMP (human glucagon receptor)
H[Aib]HGS[αMeF]TSDVSK[αMeF]LDSR[Aib]AK([AEEA-AEEA-γGlu-γGlu-C18 diacid])D[αMeF]VESIANT-NH2 [Peptide 250]	601 pM	1570 pM
H[Aib]HGS[αMeF]TSDVSK[αMeF]LDSRAAK([AEEA-AEEA-γGlu-γGlu-C20 diacid])D[αMeF]VQSIANT-NH2 (not fully specified) [Peptide 244]	143 pM	420 pM
H[Aib]HGS[αMeF]TSDVSK[αMeF]LDSR[Aib]AK([AEEA-γGlu-C18 diacid])DFVESIANT-NH2 [Peptide 253]	75.5 pM	53.1 pM
H[Aib]HGS[αMeF]TSDVSK[αMeF]LDSRAAK([AEEA-AEEA-γGlu-γGlu-C20 diacid])D[αMeF]VESIANT-NH2 (N-terminus assumed; SMILES CC[C@H](C)[C@H](NC(=O)[C@H](CO)NC(=O)[C@H](CCC(=O)O)NC(=O)[C@@H](NC(=O)[C@](C)(Cc1ccccc1)NC(=O)[C@H](CC(=O)O)NC(=O)[C@H](CCCCNC(=O)COCCOCCNC(=O)COCCOCCNC(=O)CC[C@H](NC(=O)CC[C@H](NC(=O)CCCCCCCCCCCCCCCCCCC(=O)O)C(=O)O)C(=O)O)NC(=O)[C@H](C)NC(=O)[C@H](C)NC(=O)[C@H](CCCNC(=N)N)NC(=O)[C@H](CO)NC(=O)[C@H](CC(=O)O)NC(=O)[C@H](CC(C)C)NC(=O)[C@](C)(Cc1ccccc1)NC(=O)[C@H](CCCCN)NC(=O)[C@H](CO)NC(=O)[C@@H](NC(=O)[C@H](CC(=O)O)NC(=O)[C@H](CO)NC(=O)[C@@H](NC(=O)[C@](C)(Cc1ccccc1)NC(=O)[C@H](CO)NC(=O)CNC(=O)[C@H](Cc1c[nH]cn1)NC(=O)C(C)(C)NC(=O)[C@@H](N)Cc1c[nH]cn1)[C@@H](C)O)C(C)C)C(C)C)C(=O)N[C@@H](C)C(=O)N[C@@H](CC(N)=O)C(=O)N[C@H](C(N)=O)[C@@H](C)O) [Peptide 246]	320 pM	557 pM
H[Aib]HGS[αMeF]TSDVSK[αMeF]LDSR[Aib]AK([AEEA-AEEA-γGlu-C18 diacid])DFVESIANT-NH2 (not fully specified) [Peptide 251]	79.8 pM	248 pM
H[Aib]HGS[αMeF]TSDVSK[αMeF]LDSRAAK([AEEA-AEEA-γGlu-C18 diacid])D[αMeF]VE[Aib]IANT-NH2 [Peptide 227]	70.5 pM	27.2 pM
H[Aib]HGS[αMeF]TSDVSK[αMeF]LDSR[Aib]AK([AEEA-AEEA-γGlu-C20 diacid])DFVESIANT-NH2 [Peptide 252]	119 pM	1310 pM
H[Aib]HGS[αMeF]TSDVSK[αMeF]LDSRAAK([(PEG)2-(PEG)2-γGlu-γGlu-C18 diacid])D[αMeF]VQ[Aib]IANT-NH2 [Peptide 258]	34 pM	93.1 pM
H[Aib]HGS[αMeF]TSDVSK[αMeF]LDSQAAK([AEEA-AEEA-γGlu-γGlu-C20 diacid])D[αMeF]VQ[Aib]IANT-NH2 [Peptide 256]	346 pM	1310 pM
H[Aib]HGS[αMeF]TSDVSK[αMeF]LDSRAAK([AEEA-AEEA-γGlu-C18 diacid])D[αMeF]VQ[Aib]IANT-NH2 (N-terminus assumed; SMILES CC[C@H](C)[C@H](NC(=O)C(C)(C)NC(=O)[C@H](CCC(N)=O)NC(=O)[C@@H](NC(=O)[C@](C)(Cc1ccccc1)NC(=O)[C@H](CC(=O)O)NC(=O)[C@H](CCCCNC(=O)COCCOCCNC(=O)COCCOCCNC(=O)CC[C@H](NC(=O)CCCCCCCCCCCCCCCCC(=O)O)C(=O)O)NC(=O)[C@H](C)NC(=O)[C@H](C)NC(=O)[C@H](CCCNC(=N)N)NC(=O)[C@H](CO)NC(=O)[C@H](CC(=O)O)NC(=O)[C@H](CC(C)C)NC(=O)[C@](C)(Cc1ccccc1)NC(=O)[C@H](CCCCN)NC(=O)[C@H](CO)NC(=O)[C@@H](NC(=O)[C@H](CC(=O)O)NC(=O)[C@H](CO)NC(=O)[C@@H](NC(=O)[C@](C)(Cc1ccccc1)NC(=O)[C@H](CO)NC(=O)CNC(=O)[C@H](Cc1c[nH]cn1)NC(=O)C(C)(C)NC(=O)[C@@H](N)Cc1c[nH]cn1)[C@@H](C)O)C(C)C)C(C)C)C(=O)N[C@@H](C)C(=O)N[C@@H](CC(N)=O)C(=O)N[C@H](C(N)=O)[C@@H](C)O) [Peptide 225]	34.9 pM	145 pM
H[Aib]HGS[αMeF]TSDVSK[αMeF]LDSR[Aib]AK([γGlu-C18 diacid])DFVESIANT-NH2 [Peptide 254]	102 pM	125 pM

The next lines start with the values.

hGLP-1R EC50 (pM), cAMP (human GLP-1 receptor)	hGluc-R EC50 (pM), cAMP (human glucagon receptor)	Binder
69.5 pM	297 pM	H[Aib]HGS[αMeF]TSDVSK[αMeF]LDSRAAK([(PEG)2-(PEG)2-γGlu-γGlu-C20 diacid])D[αMeF]VQ[Aib]IANT-NH2 [Peptide 264]
52 pM	271 pM	H[Aib]HGS[αMeF]TSDVSK[αMeF]LDSRAAK([PEG4′-γGlu-γGlu-C20 diacid])D[αMeF]VQ[Aib]IANT-NH2 [Peptide 269]
39.5 pM	29.3 pM	H[Aib]HGS[αMeF]TSDVSK[αMeF]LDSRAAK([AEEA-γGlu-C20 diacid])D[αMeF]VQ[Aib]IANT-NH2 (N-terminus assumed; SMILES CC[C@H](C)[C@H](NC(=O)C(C)(C)NC(=O)[C@H](CCC(N)=O)NC(=O)[C@@H](NC(=O)[C@](C)(Cc1ccccc1)NC(=O)[C@H](CC(=O)O)NC(=O)[C@H](CCCCNC(=O)COCCOCCNC(=O)CC[C@H](NC(=O)CCCCCCCCCCCCCCCCCCC(=O)O)C(=O)O)NC(=O)[C@H](C)NC(=O)[C@H](C)NC(=O)[C@H](CCCNC(=N)N)NC(=O)[C@H](CO)NC(=O)[C@H](CC(=O)O)NC(=O)[C@H](CC(C)C)NC(=O)[C@](C)(Cc1ccccc1)NC(=O)[C@H](CCCCN)NC(=O)[C@H](CO)NC(=O)[C@@H](NC(=O)[C@H](CC(=O)O)NC(=O)[C@H](CO)NC(=O)[C@@H](NC(=O)[C@](C)(Cc1ccccc1)NC(=O)[C@H](CO)NC(=O)CNC(=O)[C@H](Cc1c[nH]cn1)NC(=O)C(C)(C)NC(=O)[C@@H](N)Cc1c[nH]cn1)[C@@H](C)O)C(C)C)C(C)C)C(=O)N[C@@H](C)C(=O)N[C@@H](CC(N)=O)C(=O)N[C@H](C(N)=O)[C@@H](C)O) [Peptide 268]
16.2 pM	29.4 pM	H[Aib]HGS[αMeF]TSDVSK[αMeF]LDSRAAK([PEG4-γGlu-C18 diacid])D[αMeF]VQ[Aib]IANT-NH2 (N-terminus assumed; SMILES CC[C@H](C)[C@H](NC(=O)C(C)(C)NC(=O)[C@H](CCC(N)=O)NC(=O)[C@@H](NC(=O)[C@](C)(Cc1ccccc1)NC(=O)[C@H](CC(=O)O)NC(=O)[C@H](CCCCNC(=O)CCOCCOCCOCCOCCNC(=O)CC[C@H](NC(=O)CCCCCCCCCCCCCCCCC(=O)O)C(=O)O)NC(=O)[C@H](C)NC(=O)[C@H](C)NC(=O)[C@H](CCCNC(=N)N)NC(=O)[C@H](CO)NC(=O)[C@H](CC(=O)O)NC(=O)[C@H](CC(C)C)NC(=O)[C@](C)(Cc1ccccc1)NC(=O)[C@H](CCCCN)NC(=O)[C@H](CO)NC(=O)[C@@H](NC(=O)[C@H](CC(=O)O)NC(=O)[C@H](CO)NC(=O)[C@@H](NC(=O)[C@](C)(Cc1ccccc1)NC(=O)[C@H](CO)NC(=O)CNC(=O)[C@H](Cc1c[nH]cn1)NC(=O)C(C)(C)NC(=O)[C@@H](N)Cc1c[nH]cn1)[C@@H](C)O)C(C)C)C(C)C)C(=O)N[C@@H](C)C(=O)N[C@@H](CC(N)=O)C(=O)N[C@H](C(N)=O)[C@@H](C)O) [Peptide 261]
71.2 pM	131 pM	H[Aib]HGS[αMeF]TSDVSK[αMeF]LDSRAAK([AEEA-γGlu-AEEA-C20 diacid])D[αMeF]VQ[Aib]IANT-NH2 [Peptide 265]
25.4 pM	64.6 pM	H[Aib]HGS[αMeF]TSDVSK[αMeF]LDSRAAK([PEG4-γGlu-γGlu-C18 diacid])D[αMeF]VQ[Aib]IANT-NH2 [Peptide 263]
33.1 pM	76.9 pM	H[Aib]HGS[αMeF]TSDVSK[αMeF]LDSRAAK([AEEA-γGlu-AEEA-γGlu-C18 diacid])D[αMeF]VQ[Aib]IANT-NH2 [Peptide 260]
66.5 pM	293 pM	H[Aib]HGS[αMeF]TSDVSK[αMeF]LDSRAAK([AEEA-γGlu-AEEA-γGlu-C20 diacid])D[αMeF]VQ[Aib]IANT-NH2 [Peptide 266]
65.6 pM	128 pM	H[Aib]HGS[αMeF]TSDVSK[αMeF]LDSRAAK([PEG4-γGlu-C20 diacid])D[αMeF]VQ[Aib]IANT-NH2 [Peptide 267]
19.1 pM	34.8 pM	H[Aib]HGS[αMeF]TSDVSK[αMeF]LDSRAAK([AEEA-γGlu-AEEA-C18 diacid])D[αMeF]VQ[Aib]IANT-NH2 [Peptide 259]
13 pM	11.7 pM	H[Aib]HGS[αMeF]TSDVSK[αMeF]LDSRAAK([AEEA-γGlu-C18 diacid])D[αMeF]VQ[Aib]IANT-NH2 [Peptide 262]
